Laboratory results: patent publication US20200299373A1
One block for each binder: values may come before it.

What was measured:
[1] = molecular target: recombinant human FAM19A5 protein (His-tagged) (human) (UniProt Q7Z5A7); experiment: ELISA on N'-Term His FAM19A5, fit of the titration (OD 492 nm); R2 printed 0.9422
[2] = molecular target: recombinant human FAM19A5 protein (His-tagged) (human) (UniProt Q7Z5A7); experiment: ELISA on N'-Term His FAM19A5, fit of the titration; R2 printed 0.9422
[3] = molecular target: recombinant human FAM19A5 protein (His-tagged) (human) (UniProt Q7Z5A7); experiment: ELISA, His-FAM19A5 (positive control) coated on the plate, absorbance at 492 nm
[4] = molecular target: recombinant human FAM19A5 protein (His-tagged) (human) (UniProt Q7Z5A7); experiment: two-site sandwich ELISA; capture antibody 1-65; biotinylated detection antibody 2-13; antigen in ng/mL
[5] = molecular target: recombinant human FAM19A5 protein (His-tagged) (human) (UniProt Q7Z5A7); experiment: two-site sandwich ELISA; capture antibody 1-65; S/N = O.D. at 10 ng/mL antigen / O.D. at 0 ng/mL; O.D. in column 0 printed 0.44
[6] = molecular target: recombinant human FAM19A5 protein (His-tagged) (human) (UniProt Q7Z5A7); experiment: two-site sandwich ELISA; capture antibody P2-A03; biotinylated detection antibody 2-13; antigen in ng/mL
[7] = molecular target: recombinant human FAM19A5 protein (His-tagged) (human) (UniProt Q7Z5A7); experiment: ELISA on N'-Term His FAM19A5, fit of the titration; R2 printed 0.9303; the text gives about 2.77 nM for 2-13, which on the sheet stands under 13F7
[8] = molecular target: recombinant human FAM19A5 protein (His-tagged) (human) (UniProt Q7Z5A7); experiment: two-site sandwich ELISA; capture antibody 13B4; S/N = O.D. at 10 ng/mL antigen / O.D. at 0 ng/mL; grey cell; cells 10 and 0 under recheck
[9] = molecular target: recombinant human FAM19A5 protein (His-tagged) (human) (UniProt Q7Z5A7); experiment: two-site sandwich ELISA; capture antibody 3-2; S/N = O.D. at 10 ng/mL antigen / O.D. at 0 ng/mL; O.D. in column 0 printed 0.38
[10] = molecular target: recombinant human FAM19A5 protein (His-tagged) (human) (UniProt Q7Z5A7); experiment: ELISA on coated FAM19A5, as in Example 6
[11] = molecular target: recombinant human FAM19A5 protein (His-tagged) (human) (UniProt Q7Z5A7); experiment: two-site sandwich ELISA; capture antibody 13B4; biotinylated detection antibody 2-13; antigen in ng/mL
[12] = molecular target: recombinant human FAM19A5 protein (His-tagged) (human) (UniProt Q7Z5A7); experiment: two-site sandwich ELISA; capture antibody P2-A03; S/N = O.D. at 10 ng/mL antigen / O.D. at 0 ng/mL; O.D. in column 0 printed 0.39
[13] = molecular target: recombinant human FAM19A5 protein (His-tagged) (human) (UniProt Q7Z5A7); experiment: two-site sandwich ELISA; capture antibody P2-F11; biotinylated detection antibody 2-13; antigen in ng/mL
[14] = molecular target: recombinant human FAM19A5 protein (His-tagged) (human) (UniProt Q7Z5A7); experiment: ELISA on N'-Term His FAM19A5, fit of the titration (OD 492 nm); R2 printed 0.9303
[15] = molecular target: recombinant human FAM19A5 protein (His-tagged) (human) (UniProt Q7Z5A7); experiment: two-site sandwich ELISA; capture antibody 3-2; biotinylated detection antibody 2-13; antigen in ng/mL
[16] = molecular target: recombinant human FAM19A5 protein (His-tagged) (human) (UniProt Q7Z5A7); experiment: two-site sandwich ELISA; capture antibody P2-F11; S/N = O.D. at 10 ng/mL antigen / O.D. at 0 ng/mL; O.D. in column 0 printed 0.4
[17] = molecular target: recombinant human FAM19A5 protein (His-tagged) (human) (UniProt Q7Z5A7); experiment: ELISA on N'-Term His FAM19A5, fit of the titration (OD 492 nm); R2 printed 0.2002
[18] = molecular target: recombinant human FAM19A5 protein (His-tagged) (human) (UniProt Q7Z5A7); experiment: ELISA on N'-Term His FAM19A5, fit of the titration; R2 printed 0.9105
[19] = molecular target: recombinant human FAM19A5 protein (His-tagged) (human) (UniProt Q7Z5A7); experiment: ELISA on N'-Term His FAM19A5, fit of the titration (OD 492 nm); R2 printed 0.9105
[20] = molecular target: recombinant human FAM19A5 protein (His-tagged) (human) (UniProt Q7Z5A7); experiment: ELISA on N'-Term His FAM19A5, fit of the titration (OD 492 nm); R2 printed 0.9813
[21] = molecular target: recombinant human FAM19A5 protein (His-tagged) (human) (UniProt Q7Z5A7); experiment: ELISA on N'-Term His FAM19A5, fit of the titration; R2 printed 0.9813
[22] = molecular target: recombinant human FAM19A5 protein (His-tagged) (human) (UniProt Q7Z5A7); experiment: ELISA on N'-Term His FAM19A5, fit of the titration (OD 492 nm); R2 printed -0.2016
[23] = molecular target: recombinant human FAM19A5 protein (His-tagged) (human) (UniProt Q7Z5A7); experiment: ELISA on N'-Term His FAM19A5, fit of the titration; poor fit, R2 printed -0.2016
[24] = molecular target: recombinant human FAM19A5 protein (His-tagged) (human) (UniProt Q7Z5A7); experiment: ELISA on N'-Term His FAM19A5, fit of the titration (OD 492 nm); R2 printed 0.1299

Bmax [1]: 1.73
Kd [2]: 7.64 nM
B1: P2-C12 (antibody, V domains shown)
VH: QSLEESGGRLVTPGTPLTLTCTVSGFSLSTYAVTWVRQAPGKGLEWIGYINWRGGTSYANWAKGRFTISKTSSTTVDLKMTSPTTEDTATYFCARDASSGAAFGSYGMDPWGPGTLVTVSS
VL: ELDMTQTPSSVSAAVGGTVTIKCQASQSISSYLSWYQQKPGQPPKLLIYEASKLASGVPSRFSGSGYGTEFTLTISDLECADAATYYCQQGYSSTNVWNAFGGGTNVEIKR

O.D. [3]: 3.6
O.D., antigen 100 [4]: 2.02
O.D., antigen column 10 [4]: 1.8
S/N [5]: 4.1
O.D., antigen 100 [6]: 1.88
O.D., antigen column 10 [6]: 1.07
Kd [7]: 1.96 nM
S/N [8]: 1.1
S/N [9]: 5.1
Kd [10]: 2.77 nM
O.D., antigen 100 [11]: 1.48
S/N [12]: 2.7
O.D., antigen 100 [13]: 1.94
O.D., antigen column 10 [13]: 1.91
Bmax [14]: 2.41
O.D., antigen 100 [15]: 2.01
O.D., antigen column 10 [15]: 1.97
S/N [16]: 4.8
B2: anti-FAM19A5 antibody 2-13 (antibody, V domains shown)
VH: AVTLDESGGGLQTPGGALSLVCKASGFTFSSHGMFWVRQTPGKGLEYVAEITNDGSGTNYGSAVKGRATISRDNGQSTVRLQLNNLRAEDTGTYFCARSTYECPGGFSCWGDTGQIDAWGHGTEVIVSS
VL: ALTQPSSVSANPGETVKITCSGGSYSYGWFQQKSPGSALVTVIYWDDERPSDIPSRFSGALSGSTNTLTITGVQADDEAVYFCGTEDISGTAGVFGAGTTLTVL

Bmax [17]: 0.134
B3: P2-F07 (antibody, V domains shown)
VH: QSLEESGGRLVTPGTPLTLTCTASGFSLSSYYMNWVRQAPGKGLEWIGIIYPSGTTYYAGWAKGRFTISKTSTTVDLKITSPTSEDTATYFCARTVSGYFDIWGPGTLVTVSL
VL: ELDLTQTPPSLSASVGGTVTINCLASEDIYSALAWYQQKPGKPPTLLISGTSNLESGVPPRFSGSGSGTDYTLTIGGVQAEDAATYFCQGYSSYPLTFGAGTNVEIKR

Kd [18]: 9.09 nM
Bmax [19]: 1.19
B4: P2-A01 (antibody, V domains shown)
VH: QEQLVESGGRLVTPGTPLTLSCTASGFFLSGYYMSWVRQAPGKGLEWIGIIYPSGSTDYASWAKGRFTISKTSTTVDLKITTPTTEDTATYFCARVAGYVGYGYETFFDIWGPGTLVTVSL
VL: ELVMTQTPPSLSASVGETVRIRCLASEDIYSGISWYQQKPGKPPTLLIYGASNLESGVPPRFSGSGSGSDYTLTIGGVQAEDAATYYCLGGVTYSSTGTHLTFGAGTNVEIKR

Bmax [20]: 2.45
Kd [21]: 7.5 nM
B5: P1-A03 (antibody, V domains shown)
VH: QSVEESGGRLVTPGTPLTLTCTVSGFSLSSDYMSWVRQAPGEGLEWIGIIYPSTTTYYASWAKGRFTISKTSSTTVELKMTSLTTEDTATYFCARGSNWSSGMNLWGPGTLVTVSS
VL: ELVMTQTPPSLSASVGETVRIRCLASEDIYSGISWYQQKPEKPPTLLISGASNLESGVPPRFSGSGSGTDYTLTIGGVQAEDAATYYCLGGYSYSSTGLTFGAGTNVEIKR

Bmax [22]: 0.479
Kd [23]: 6.95 nM
B6: P1-A08 (antibody, V domains shown)
VH: QSLEESGGRLVTPGTPLTLTCTASGFSLSTYYMSWVRQAPGKGLEWIGIVYPSGTTYYANWAKGRFTISTASTTVDLMITSPTTEDTATYFCARGDSFGYGLWGPGTLVTVSS
VL: ELVLTQSPSVQVNLGQTVSLTCTADTLSRSYASWYQQKPGQAPVLLIYRDTSRPSGVPDRFSGSSSGNTATLTISGAQAGDEADYYCATSDGSGSNYQYVFGGGTQLTVTR

Bmax [24]: 0.172
B7: P1-F02 (antibody, V domains shown)
VH: QSLEESGGRLVTPGTPLTLTCTASGFSLSNYYMGWVRQAPGEGLEWIGIIYASGSTYYASWAKGRFTISKTSTTVDLKMTSLTTEDTATYFCARIDIGVGDYGWAYDRLDLWGQGTLVTVSS
VL: ELDMTQTPPSLSASVGETVRIRCLASEDIYSGISWYQQKPGKPPTLLIYGASNLESGVPPRFSGSGSGTDYTLTIGGVQAEDAATYYCLGGYSYSSITFGAGTNVEIKR
